Measured values taken from the supplement of paper PMC10567573.

B1: ZNF263 (parent)
chain: EKPYKCPECGEIFAHSSNLLRHQR
B2: GFOD1 (parent)
chain: EEAEELAKEMSVPFYTSRIDEVLL

Variants of: B1
Assay: protein stability index of a GFP-peptide fusion (GPS, HEK-293T) (PSI 1-6); higher = more stable
Conditions: c terminus: a fixed tail appended
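Also: lentivirally expressed fusions sorted by FACS into six bins by GFP to DsRed ratio, PSI derived from sequencing read proportions per bin multiplied by bin number.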

Protein stability index, by site and new letter:
F13: P 2.62 | Y 2.19 | G 2.35 | I 2.8 | L 2.54 | Q 2.33 | S 2.75 | K 2.55 | C 3.01 | H 4.03 | W 1.5 | M 2.1 | N 1.51 | V 2.12 | R 3.24 | D 3.37
L19: H 3.63 | N 1.64 | P 2.18 | E 1.91 | D 2.78 | S 2.61 | V 2.92 | Q 1.78 | M 2.38 | A 1.84 | Y 2.54 | I 1.8 | T 2.16 | F 2.68 | K 2.73 | C 4.49
S16: R 2.3 | L 3.26 | M 3.32 | E 3.04 | N 1.33 | F 3.53 | K 1.71 | P 2.81 | I 2.96 | Y 3.26 | T 1.84 | W 3.44 | Q 2.45 | D 2.47 | G 2.48 | H 2.55 | V 2.83 | C 2.73 | A 2.36
R21: W 3.43 | A 3.84 | K 3.51 | F 3.04 | L 2.82 | H 3.35 | E 4.38 | V 2.85 | Y 3.36 | M 3.58 | I 3.75 | N 3.29 | C 3.98 | G 2.01 | T 4.27 | D 4.24 | S 2.89 | P 3.43
S17: W 2.24 | P 2.66 | L 2.79 | E 4.22 | I 2.89 | Y 2.47 | T 2.06 | D 3.33 | F 2.85 | M 2.12 | V 2.08 | H 3.51 | Q 1.98 | C 4.32 | R 2.42 | N 2.75 | G 2.63 | A 2.43
H15: D 3.96 | A 2.3 | E 3.3 | N 3.62 | L 1.95 | Y 1.8 | I 1.7 | S 4.34 | W 2.65 | T 3.55 | G 2.55 | M 1.56 | C 3.26 | R 2.31 | V 2.49 | Q 3.15 | P 2.54 | F 2.94
H22: K 2.16 | I 1.34 | F 1.66 | L 1.91 | W 1.23 | S 1.89 | T 1.43 | G 1.25 | A 2.88 | M 2.64 | E 2.55 | Q 1.54 | N 2.35 | D 3.17 | R 3.03 | C 2.43 | P 1.35
L20: T 2.66 | G 2.29 | Y 2.44 | M 2.6 | Q 2.96 | I 2.04 | K 2.62 | A 1.79 | E 2.75 | P 1.84 | R 2.59 | D 3.29 | N 1.59 | F 1.78 | C 4.11 | H 3.79 | V 1.87
I12: W 2.23 | E 2.94 | K 1.12 | M 2.04 | Y 3.01 | P 1.73 | N 1.83 | F 1.82 | V 1.7 | Q 3.23 | D 2.22 | H 1.57 | G 1.17 | L 3.66 | S 2.98
N18: C 3.75 | V 4.54 | Y 3.37 | P 2.55 | S 4.02 | G 3.05 | F 2.54 | E 4.7 | D 4.05 | A 4.13 | T 2.76 | H 4.44 | W 2.06 | M 2.82 | L 2.67 | I 2.37
A14: F 2.57 | K 2.82 | T 2.58 | Q 2.45 | L 2.75 | P 2.7 | N 2.7 | V 3.17 | R 2.57 | M 2.29 | G 3.09 | D 3.67 | C 2.37 | W 2.69 | E 4.13 | S 2.38 | I 2.27 | H 3.17 | Y 2.79
Q23: E 2.48 | D 1.82 | K 2.9 | H 2.34 | W 2.42 | L 2.86 | G 1.82 | C 2.41 | M 3.02 | T 2.25 | P 2.11 | V 1.82 | A 2.21 | N 2.88 | F 2.35 | Y 2.07 | I 3.16
R24: A 4.17 | P 3.44 | C 5.28 | S 4.47 | Q 3.74 | F 3.32 | V 3.54 | G 3.7 | N 3.92 | Y 2.68 | E 4.38 | I 3.25 | L 4.29 | K 3.25 | T 3.24 | M 3.6 | W 2.74 | H 4.43 | D 3.96

Variants of: B2
Assay: as above
Conditions: c terminus: a fixed tail appended

Protein stability index of substitutions, site by site:
L6: C 4.38 | E 4.67 | I 3.73 | R 4.2 | T 4.46 | N 4.51 | Y 3.95 | P 4.26 | S 4.19 | V 3.94 | H 4.48 | Q 3.7 | K 4.54 | A 4.38 | D 4.99 | M 4.01 | F 3.93 | W 3.75
E1: L 3.75 | V 2.95 | M 3.45 | P 3.51 | T 3.56 | N 2.83 | R 3.33 | C 3.08 | A 3.79 | Y 2.98 | I 2.46 | S 4.24 | K 4.03 | G 2.43 | H 4.47
A7: L 2.93 | I 2.77 | C 4.06 | M 3.14 | R 3.62 | F 2.99 | D 4.62 | P 4.5 | K 3.32 | H 4.2 | E 3.87 | S 3.6 | Q 4.06 | N 4.02 | G 4
A3: V 3.32 | E 4.32 | Y 3.38 | L 3.11 | N 4.03 | G 3.95 | K 4.38 | C 2.56 | H 3.84
E5: K 4.14 | D 3.93 | W 2.35 | I 2.57 | F 2.94 | A 3.45 | R 3.56 | L 4.05 | V 2.58 | G 4.04 | P 3.96 | C 3.79 | H 3.6 | N 3.23 | Y 3.98 | T 3.48 | S 3.13 | M 2.95
E4: F 2.98 | G 3.4 | I 3.51 | M 4 | T 3.86 | P 3.6 | H 3.4 | R 3.52 | Y 2.64 | S 3.93 | C 2.73 | A 3.45 | W 2.77 | L 2.9 | K 3.46 | Q 3.9 | D 3.97 | N 3.92
E2: S 3.41 | M 2.53 | W 3.66 | T 3.2 | F 2.1 | I 2.18 | C 3.06 | R 2.94 | G 3.39 | A 3.66 | L 2.76 | D 3.72 | N 4 | Y 2.39 | V 3.64 | H 3.06
